In the DeepSol protein solubility set:

Test: soluble on expression in E. coli; label from the status in PepcDB or PDB records

Row | Sequence | soluble on expression in E. coli
1 | MSLKFAAGFVLIDAPHSALNMLGIDESLPDRNVTRVKTLRRGGNRYVYISPQAWRYWWRITLKEYFNWELSPLFREEKQVFTAANPIKYPDDDVFGYMRAYKKNKVNVTVTRISPLKNTPLVSVLPDRSSLTIDEGYASRHEGDPVPYSQEFYSTVLKGAFSLDLDLVGRFTTKNKAGYKNLLTRDDIPKKGKGEDIVKEIKELEELARNVGVEIKDGEWIMPKEIRKKRSIETIKALRYLTGGAKQTQYHTDVTPKLFLGIIVNGGINPFISDIVREEKGEIILDAEALATRLEDFSDIIDSKLFLGYDMGFVRSLGLEIEAIKSTAGIEVVEGKVGEIIEKFAEEAGKYYIEGHHHHHH | soluble
2 | MDFESNGAMMEYCKSTGRTYCAFSIQQSSKLLGTVVLELFTDIAPATCANFIKYIKDGYQGTPLHRIVPNGWVQGGDIVDGSGKGDPGFVLPDETYSVKHDAPGVLGMATGGQPHTANTQFYISLSPLPFLDGKRVAFGRVLNKQSLENLLALQTLPTFQNERPVPDVVIASCHVIYNPNS | not soluble
3 | GPGSMSAETLACTYAALMLSDAGLPTSAENIAAAVKAAGVEMRPTLPIIFARFLEKKSVETLMAAAAAQAPTAASAPSPAAGAASAAAAGGKVEDKKKDEPEEEGDDDMGFGLFD | soluble
4 | MGSDKIHHHHHHMNKIFKCFPDGKFKVLTMSYDDGKLSDKKLVSIFNKYGIKGTFHINSGLIGSYNRLTKAEIKTLYSGHEVSAHTLTHPTIARCPMEQVTKEILMDRENLEEIVGYPVRGLSYPNGSYNDSIRNLLKYLGIEYSRIVGNSDSFDLPSDFTAWKATCHHNHNLMEHAKEFVFLYKKQYLYMMYVWGHSYEFDRDNNWHLIENFCSYISNKDDIWYATNIEIVDYKNVLDNLKFSAKSDFVYNPSAKSAWITVNDEIVEIKGGTQLKLS | not soluble
5 | MSVERSLEAWEEVQRHGQDLADRLAQGFNGLIQINPPSFPSKLFDLEFSSQHFGIRDSRFSIHQPINGVSAILDIGNKIGQAGVDFGSGLNVMVQQFFRRLPVPFRHDENVFVSTERDTVTRSHRAYVDTKENSAFSKTDTASSGTVYEEKVTEFDLRTIGLHRRAKGTVELSSSYETRTSSMEHSLAARGDLWRVEASTSNSPVRDDSSSLFLLQLGPLLFLRDSTLLLPVHLSKQHLLWYGYDRKKGMHSLCPALWSKHRRWLMMSMLCLNPLDCSFVDLQFPNGQLTYVSGEGLTTSVFVPLCGGLLQAQGQYPGDMRFSFSCKSKQGTRITPMINWPDKSLALGVSQALAWRRSGVMLKPAIQLSVCSTFGGSNPGIKTEVIQSLNDNINMICGCAFTAHPSTFASVSFGRSKWNGNIGRTGIVVRADTPLPNVARPSFSIQINNAFEF | soluble
6 | GAMAPATVNVEVLQDKLDHPWALAFLPDNHGMLITLRGGELRHWQAGKGLSAPLSGVPDVWAHGQGGLLDVVLAPDFAQSRRIWLSYSEVGDDGKAGTAVGYGRLSDDLSKVTDFRTVFRQMPKLSTGNHFGGRLVFDGKGYLFIALGENNQRPTAQDLDKLQGKLVRLTDQGEIPDDNPFIKESGVRAEIWSYGIRNPQGMAMNPWSNALWLNEHGPRGGDEINIPQKGKNYGWPLATWGINYSGFKIPEAKGEIVAGTEQPVFYWKDSPAVSGMAFYNSDKFPQWQQKLFIGALKDKDVIVMSVNGDKVTEDGRILTDRGQRIRDVRTGPDGYLYVLTDESSGELLKVSPR | soluble
7 | MVRTINLYYNNRTVQAIVELKNKPARWHKAKKVQLTPGQTEVKIDLPLPIVASNLMIEFADFYENYQASTETLQCPRCSASVPANPGVCGNCGENVYQCHKCRSINYDEKDPFLCNACGFCKYARFDFMLYAKPCCAVDPIENEEDRKKAVSNINTLLDKADRVYHQLMGHRPQLENLLCKVNEAAPEKPQVVPRCKGHLDKGLGLDQKTAS | not soluble
8 | MAHDVEVKNAVRGAYVFDRLSLEMAAEKAGVSFGTARRWKANAESNGDNWDKARDVHVMASGGIENIAQGLLTGFLIKYRKLMSELEENTEMATAAKVEALSALADSFAKMTASSKKLLPETSAMATAMRAIEMMANIVKSKKPHLLPDFLEMLDDLEVQFKKEFK | not soluble
9 | SMQAARLAKALRELGQTGWYWGSMTVNEAKEKLKEAPEGTFLIRDSSHSDYLLTISVKTSAGPTNLRIEYQDGKFRLDSIICVKSKLKQFDSVVHLIDYYVQMCKDKRTGPEAPRNGTVHLYLTKPLYTSAPSLQHLCRLTINKCTGAIWGLPLPTRLKDYLEEYKFQV | soluble
10 | MKLGFVGAGRVGSTSAFTCLLNLDVDEIALVDIAEDLAVGEAMDLAHAAAGIDKYPKIVGGADYSLLKGSEIIVVTAGLARKPGMTRLDLAHKNAGIIKDIAKKIVENAPESKILVVTNPMDVMTYIMWKESGKPRNEVFGMGNQLDSQRLKERLYNAGARNIRRAWIIGEHGDSMFVAKSLADFDGEVDWEAVENDVRFVAAEVIKRKGATIFGPAVAIYRMVKAVVEDTGEIIPTSMILQGEYGIENVAVGVPAKLGKNGAEVADIKLSDEEIEKLRNSAKILRERLEELGY | soluble
11 | MNKDVSLGQPIVRYEDGKLFNTTDQYVTEFPLTIMVNGEEFATVICSPTNLEELVIGFLASEGAILKRDELKSVLIDDSKGFAHVELNKDLGDRFQYSTKRMIASCCGKSREFYFQNDAAIAKTSMSKITLTPIQIINMMTRLQSASHIYQETGGLHNAAISDGLTFFVHRQDIGRHNALDKLYGFCIQRHITVRDKVLIFSGRISSEILIKAAKIGVGVILSKSAPTTLAVTLANDLNITAVGFIRNGGFNIYSHPERIIDSEQ | not soluble
12 | MITPKVLSGFKDRLPKDAIQKAQLLAKVSVVFQSFGFVPIETPHLEYAQTLLPDASSDIQKEIYRFKDHGDRDVALRFDLTVPLARFVSLHHQTLGMPFKRYAIGNVFRGERAQKGRYREFTQCDFDFIGSESLVCDAEIIQVIVASLKALDLEDFCVSINHRKILNGICEYFGISQVNEALRIVDKLEKIGLNGVEEELKKECGLNSNTIKELLELIQIKQNDLSHAEFFEKIAYLKDYNENLKKGIQDLERLYQLLGDLQISQNLYKIDFSIARGLGYYTGIVYETTLNEMKSLGSVCSGGRYDHLTKNFSKENLQGVGASIGIDRLIVALSEMQLLDERSTQAKVLIACMHEEYFSYANRLAESLRQSGIFSEVYPEAQKIKKPFSYANHKGHEFVAVIGEEEFKSETLSLKNMHSGMQLNCLSFLKALEIIGENDEDL | not soluble
13 | HQPVSFGLSVRKSLPKGFSVETGLTYTLLSSDIKRQGDTKMQSQKLHYIGIPVRGNWNFLEKKYFTLYVSAGGMVEKCVYGKLADDKVNVKPLQFSVAGAVGAQFNATDHVGLYVEPGVSYFFDDGSKVQTIRKERPCNFNLQAGLRFTY | not soluble
14 | MGSDKIHHHHHHMSEHLTLPTNKPQVTHFSSGPCAKHPGWSVSNLENACLGRSHRSEDGKAKLSEVIERSKQILGLPADYRLGIVPASDTGAVEMALWSLLGQRPLDILAWESFGQEWVKDVVDELKLPDVRLLKAPYGGLPNLDEVDFSHDVVFLWNGTTSGVRVPNGDWIKDDRQGLTICDATSAVFAMDIPWEKIDVLTYSWQKVLGGEAQHGVIVLSPRAVERLQTYEPAWPIPKIFRLSQKGKLIEGIFKGDTINTPSMLCVEDALDALIWAESVGGLPGLISRSEANLAAIAQWVKQSNWADFLAEKPETRSCTSICLKIVDAAFASLSAEDQGKFAKKLAKLLEKQQVAYDIAPYRAAPPGLRIWGGATVETADIEALLPWLDWAYANVKAEFVPVA | not soluble
15 | MGSDKIHHHHHHMESSTNPWWVPEDFLAKLQKRVNPEKLAKYGLNDIRQAYFGIYLGIRLDDGSRAPQFLPYKPGFANHIFFLGRSGYGKTSIMRALAEGIYDYFYLNGRKALIIIIEAKYDKTKVKKLMTFREYIIQNFGYDYLLENYPWLENYLQEYSQKRPLLGKIGDFAFGWPNVEGIMTKVDSHHNQFQRHRLQPMIYPSTRIVFRPTRDLSLISRDNGMNVQVVEGKISYERLEVEDLTKFTYVNTQTNYMRILDIYWGQKKIRDPDRFLKEVIRNEYPPRSGETIEDILRSRDRTIANLRTLMNKLKSDRLFTKDPKEEFVKKLTPDRINVIDFSANSRLSDEEEAEIFNILVNYVVNEFALKKDIPVFIIVDEVQNIAKHRLGMAAINKIYREGRSLEISLISGTQYLSGLSKDLVRGATHIGIVGRLASERDAELLEEILDERFDTGEKPRSLQELFRIRKARRGKGKFSIDCEYTFTIEYRVPKTL | not soluble
